This passage reports percent of parent results from publication PMC9941469.

The assay has as its target phosphorylated Smad5 (pSmad5), mouse (UniProt P97454). The experiment in a line: Co-Immunoprecipitation. To be noted: parent: est. 100; read off a plot.
UniProt P97454, sequence (P97454 whole entry): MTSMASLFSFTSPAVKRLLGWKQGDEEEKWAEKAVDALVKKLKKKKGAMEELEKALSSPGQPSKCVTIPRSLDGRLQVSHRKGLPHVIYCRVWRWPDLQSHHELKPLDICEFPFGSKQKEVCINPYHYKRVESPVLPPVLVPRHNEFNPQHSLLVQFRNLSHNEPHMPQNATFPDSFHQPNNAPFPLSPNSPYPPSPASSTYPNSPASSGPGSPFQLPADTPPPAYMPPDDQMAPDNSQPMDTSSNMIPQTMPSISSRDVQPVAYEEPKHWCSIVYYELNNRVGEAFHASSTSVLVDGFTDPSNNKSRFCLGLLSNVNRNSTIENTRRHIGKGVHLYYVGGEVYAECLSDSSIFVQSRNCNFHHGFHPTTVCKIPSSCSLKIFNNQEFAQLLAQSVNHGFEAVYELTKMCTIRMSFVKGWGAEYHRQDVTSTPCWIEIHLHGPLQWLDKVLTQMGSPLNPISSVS

Take “Hoxd13 (homeobox D13), wild type, mouse (from UniProt P70217) R306L”: the percent of parent was 70 % of WT.
